Experimental data taken from patent US10646600B2, “HER2 polypeptides useful for imaging and monitoring tumors and cancers” (GE HEALTHCARE LIMITED, priority 2013, dated 2020).
Like-named read-outs stand apart in the source and are kept apart here.

Assays:
human HER2 = biological target: T1, human HER2 (Homo sapiens, UniProt P04626); test: Surface Plasmon Resonance, human HER2-ECD-Fc; assay type: binding
T1 construct: Human, rhesus and rat HER2-ECD-Fc (SINO Biological, Beijing, China, Cat. Nr: 10004-H02H, 90020-K02H, and 80079-R02H); Fc (C); purchased SINO Biological 10004-H02H
Protocol: To characterize the affinity of [^19F]GE-226[SEQ ID NO 1] to HER2 protein, Surface Plasmon Resonance studies were conducted. Human, rhesus and rat HER2-ECD-Fc (SINO Biological, Beijing, China, Cat. Nr: 10004-H02H, 90020-K02H, and 80079-R02H), as well as human HER2-ECD-Fc-6×His (R&D Systems, Minneapolis, Minn., Cat. Nr: 1129-ER) and p95HER2 ECD-Fc-6×His (Syngene, Cambridge, United Kingdom) were diluted with 50 mM sodium acetate pH 4.5 (Biacore (GE Healthcare, Buckinghamshire, UK) coupling buffer) to a final concentration of 10 μg/mL. Antigen coupling to Biacore sensor chip CMS (Cat. Nr: BR-1005-30) was done according to amine coupling protocol from the instrument manual (Syngene). HBS-EP buffer (10 mM HEPES pH 7.4, 150 mM NaCl, 3 mM EDTA and 0.005% surfactant P20; GE Healthcare, Little Chalfont, United Kingdom, Cat. Nr: BR-1006-69) was used as running buffer and as solvent for the substances. The affinity studies were performed using a Biacore T100 (GE Healthcare). [^19F]GE-226 was diluted in HBS-EP buffer to 50 nM, 25 nM, 12.5 nM, 6.25 nM, 3.125 nM, 1.56 nM, 0.78 nM, 0.39 nM, 0.195 nM, 0.097 nM, 0.049 nM and 0 nM. The flow cells of the first chip comprised of blank, human HER2-ECD-Fc-6×His, p95HER2-ECD-Fc-6×His batch I and p95HER2-ECD-Fc-6×His batch II. The flow cells on the second chip contained blank, human HER2-ECD-Fc, rhesus HER2-ECD-Fc and rat HER2 ECD-Fc. The immobilization of the proteins was validated with protein-A (Sigma-Aldrich, St. Louis, Mo., Cat. Nr: P6031) and anti-human IgG antibody (Perkin Elmer, Waltham, Mass., Cat. Nr: NEF803001EA). [^19F]GE-226[SEQ ID NO 1] was pumped in duplicate over cells in randomized order for 60 sec at 50 μL/min flow rate followed by 120 sec of HBS-EP to monitor dissociation. This was followed by regeneration of the chip with 50 mM sodium hydroxide for 30 sec at 30 μL/min flow rate followed by 60 sec run of HBS-EP to stabilize the surface. Kinetic calculations were performed using Langmuir 1:1 binding model and simultaneous calculation of association and dissociation phase.

SKOV-3 cells = test: In vitro uptake assay in SKOV-3 cells (blocking, siRNA, drug treatment, specific activity); assay type: cell-based, human
Protocol: For siRNA-mediated HER2 knockdown, SKOV-3 cells were transfected with 25 nM scramble control (SCR; Dharmacon, Lafayette, Colo., ON-TARGETplus Non-targeting Pool, Cat. Nr: D-001810-10-05) or HER2-targeting siRNA (Invitrogen ERBB2 Silencer® Select Validated siRNA; Cat. Nr: 4457298) by reverse wet transfection with Lipofectamine RNAiMAX (Invitrogen) according to manufacturer's instructions. 3×10^5 cells were seeded in 12-well plates 48 h prior to uptake experiment. Target knockdown was verified by western blotting on cells that were transfected in parallel.
For all uptake studies in response to drug treatment, 2.5×10^5 SKOV-3 cells were seeded in complete medium 48 h prior to uptake experiments.
For baseline uptake in HER2 positive or negative lineages, 3×10^5 cells were seeded in complete media in 12-well plates (Corning, Tewksbury Mass.) and allowed to recover overnight. Cells were washed twice with serum-free medium and pulsed with 370 KBq in 500 μL serum-free medium for one h. For blocking studies, cells were co-incubated with tracer and 0.5 mg/mL cold unlabeled [^19F]GE-226[SEQ ID NO 1].
Cells were washed with PBS, trypsinized, neutralized with complete medium and centrifuged. The pellet was washed three times with PBS and lysed in 120 μL RIPA buffer (Sigma-Aldrich). The radioactivity of 100 μL lysate was counted on a Packard Cobra II gamma counter (Perkin Elmer). Radioactivity was normalized to applied radioactivity and protein content, which was determined for each sample by BCA assay (Pierce, Rockford, Ill.).

Substance | Kd (human HER2; human HER2, text, read-out: KD) [nM] | tracer uptake in comparison to freshly prepared tracer (SKOV-3 cells; incubation initiated 70 minutes later (specific activity)) [%] | tracer uptake in comparison to freshly prepared tracer (SKOV-3 cells; incubation initiated 140 minutes later (specific activity)) [%] | Off-rate koff (human HER2; Human HER2) [s⁻¹] | Rmax (human HER2; Human HER2) | On-rate kon (human HER2; Human HER2, Langmuir 1:1 binding model) [M⁻¹ s⁻¹] | Chi-Square χ^2 (human HER2; Human HER2, fit statistic) | U-value (human HER2; Human HER2, fit statistic) | Kd (human HER2; Human HER2, read-out: Affinity KD) [nM] | binding to human HER2 (words) (human HER2; listed as GE-226) | binding to human HER2 (words) (human HER2; listed as [^19F]-GE-226) | reduction of [18F]GE-226 uptake by blocking (SKOV-3 cells; co-incubation with 0.5 mg/mL cold [19F]GE-226, 60 minutes) [%] | [18F]GE-226 uptake compared to control cells (100±12%) (SKOV-3 cells; co-incubation with large excess of 19F analogue) [%]
[^18F]GE-226: HER2-binding 18F-radiolabelled Affibody molecule ZHER2:2891 | 0.076 | 39.5±8.5 | 24.9±3.8 |  |  |  |  |  |  |  |  |  | 
[^19F]GE-226: cold unlabeled non-radioactive 19F analogue of the tracer, used for SPR and blocking | 0.076 |  |  | 0.00131 | 133.5 | 1.73e+07 | 0.607 | 3 | 0.0758 | binds with high affinity | high affinity binding | 96.8±2.6 | 3.1±2.6
